In publication PMC12093976, “Characterization of 2-phenanthroyl-CoA reductase, an ATP-independent type III aryl-CoA reductase involved in anaerobic phenanthrene degradation” (Applied and Environmental Microbiology, 2025) one finds Km and Vmax data, which are given here for one substance.

This series concerns T1, CC(C)(COP(=O)(O)OP(=O)(O)OC[C@H]1O[C@@H](n2cnc3c(N)ncnc32)[C@H](O)[C@@H]1OP(=O)(O)O)[C@@H](O)C(=O)NCCC(=O)NCCSC(=O)c1ccc2c(ccc3ccccc32)c1.
T1 construct: codon-optimized gene in pASG-IBA103, C-terminal twin-Strep-tag, E. coli BL21(DE3); 72 kDa monomer; FMN, FAD, [4Fe-4S]; primers encode N-terminal MKLFEPIK and C-terminal LAALH
The series is described as follows: LC/MS of dihydro-2-phenanthroyl-CoA formation, initial rates. The note with it: dithionite-reduced methyl viologen as electron donor, 1 mM NADH, 50 µM FMN, 1 mM FAD, 50 mM HEPES pH 7.5, 30 °C, anoxic, substrate varied 2-100 µM. In kind it is biochemical, uncultured Desulfobacterium sp. From the text: LC/MS of dihydro-2-phenanthroyl-CoA formation, initial rates on 2-phenanthroyl-CoA reductase

What is called Km is the concentration of substrate that gives half-maximal velocity. The term Vmax denotes the rate approached at saturating substrate. As for “2-phenanthroyl-CoA reductase (uncultured Desulfobacterium sp.)”, the Michaelis constant (Km) was 1.8 µM and the Vmax is 7.9 µmol/min/mg.
